Data as given in patent US20190111080A1 (PRECIGEN, published 2019).

B1: EGFRvIII CAR (MR1-1 scFv · CD8alpha 3x hinge&TM · 4-1BB · CD3ζ) (receptor)
chain: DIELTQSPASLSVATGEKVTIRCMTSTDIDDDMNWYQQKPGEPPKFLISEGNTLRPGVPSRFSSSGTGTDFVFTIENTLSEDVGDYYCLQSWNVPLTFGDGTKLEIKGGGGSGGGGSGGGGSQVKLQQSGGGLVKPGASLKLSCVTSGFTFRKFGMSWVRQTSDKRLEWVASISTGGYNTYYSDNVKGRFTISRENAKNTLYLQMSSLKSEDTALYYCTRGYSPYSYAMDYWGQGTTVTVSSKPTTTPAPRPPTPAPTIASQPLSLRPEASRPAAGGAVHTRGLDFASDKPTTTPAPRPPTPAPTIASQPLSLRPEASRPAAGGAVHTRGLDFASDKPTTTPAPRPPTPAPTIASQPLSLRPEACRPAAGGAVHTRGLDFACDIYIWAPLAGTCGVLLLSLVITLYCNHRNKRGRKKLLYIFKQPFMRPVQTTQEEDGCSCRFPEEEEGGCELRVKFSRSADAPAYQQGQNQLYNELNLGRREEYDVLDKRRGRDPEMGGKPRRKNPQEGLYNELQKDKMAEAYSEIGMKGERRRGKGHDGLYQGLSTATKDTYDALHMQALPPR
notes: Expressed on human T cells; also called MR1-1 CAR CD8-3×
B2: EGFRvIII CAR (MR1-1 scFv · CD8alpha 4x hinge&TM · 4-1BB · CD3ζ) (receptor)
chain: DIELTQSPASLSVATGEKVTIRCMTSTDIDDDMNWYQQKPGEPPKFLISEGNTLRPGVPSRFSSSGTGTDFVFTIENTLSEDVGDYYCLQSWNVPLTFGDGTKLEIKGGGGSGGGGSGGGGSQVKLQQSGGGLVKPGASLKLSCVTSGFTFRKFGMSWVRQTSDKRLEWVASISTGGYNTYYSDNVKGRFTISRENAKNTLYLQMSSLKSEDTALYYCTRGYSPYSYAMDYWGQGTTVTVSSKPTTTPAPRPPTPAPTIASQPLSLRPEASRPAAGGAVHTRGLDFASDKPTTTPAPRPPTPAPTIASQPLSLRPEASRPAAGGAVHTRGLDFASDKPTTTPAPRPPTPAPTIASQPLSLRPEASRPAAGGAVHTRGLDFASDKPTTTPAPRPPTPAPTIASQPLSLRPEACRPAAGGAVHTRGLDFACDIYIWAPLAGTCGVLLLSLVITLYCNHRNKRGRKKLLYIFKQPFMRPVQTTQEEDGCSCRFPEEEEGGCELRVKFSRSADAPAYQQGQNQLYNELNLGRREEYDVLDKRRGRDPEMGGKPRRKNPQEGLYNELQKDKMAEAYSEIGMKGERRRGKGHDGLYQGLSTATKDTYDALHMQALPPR
notes: Expressed on human T cells; also called MR1-1 CAR CD8-4×

Target: T1, recombinant EGFRvIII/Fc protein (UniProt P00533 25-645)
T1 construct: Staining reagent for flow cytometry; not shown: Fc part not described
Assay: flow cytometry, CAR T cells stained with recombinant EGFRvIII/Fc, day 1
Description: Briefly, EGFRvIII-specific CAR vectors were introduced into via electroporation, using a Sleeping Beauty-based transposon system to mediate genomic integration of the transposons. On day 0, PBMC were mixed with CAR transposon and SB transposase and electroporated. The following day (day1) cells count and viability were measured followed by flow cytometry to quantify CAR expression. CAR-T cells were stimulated by co-culture with either γ-irradiated) or mitomycin C treated AaPCs. The AaPC cells used were K562 cell line expressing EGFRvIII antigen. EGFRvIII-CAR-T cells were expanded ex vivo by once weekly stimulation with the AaPCs. Cultures were maintained in media supplemented with IL-2 (and/or IL-21. EGFRvIII-specific CAR expression was measured using recombinant EGFRvIII/Fc protein staining as detected by multi-parameter flow cytometry.

Row | Binder | binding result
1 | B1 | binds
2 | B2 | binds
